Laboratory results taken from patent US20160122430A1 (AbbVie / Abbott, published 2016).

Assays:
[1] = molecular target: T1, human CS1 (HuCS1) (human, UniProt Q9NQ25 23-335); test: flow cytometry on L-363 cells; maximum fluorescent value at any tested concentration
T1 construct: also called FL-HuCS1; SLAMF7
Description: (§1) L-363 cells were incubated with different amounts of test antibody on ice for 30 min. Cells were washed three times with PBS+1% FBS. A PE-conjugated goat anti-human Fc antibody was added to the cells and incubated for 30 min on ice. Cells were washed three times with PBS+1% FBS, and binding was quantitated by flow cytometry.

[2] = molecular target: T1, human CS1 (HuCS1); test: flow cytometry on L-363 cells; GeoMean (max) relative to elotuzumab
Description: as §1

[3] = molecular target: T1, human CS1 (HuCS1); test: flow cytometry on L-363 cells, PE goat anti-human Fc detection
Description: as §1

[4] = molecular target: T2, human CS1 ECD-huIgG1 (human, UniProt Q9NQ25 23-226); test: hybridoma screen of Example 1 (ELISA on ECD-huIgG1 fusions, flow cytometry on OPM-2 cells); member named in Table 5
T2 construct: Its preparation is not described; also called HuCS1Fc; HuCS1-Fc; not shown: constant region of human IgG1 (huIgG1 Fc)
Description: Specificity of antibodies secreted by hybridomas was determined by binding to human CS1 ECD-huIgG1 and CmCS1 ECD-huIgG1, and not to negative control CLL1 ECD-huIgG1 by ELISA. […] Hybridoma supernatants were allowed to bind to the proteins and detected with an HRP conjugated donkey anti mouse IgG (H+L) antibody. Hybridomas that recognized both human and cynomolgus but not CLL fusion proteins were further tested for binding to the huCS1 molecule on an endogenously expressing OPM-2 cells using standard flow cytometry protocols. Briefly, OPM-2 cells were incubated with hybridoma supernatants for 30 minutes on ice. After extensive washing, cells were incubated with phycoerythrin conjugated goat anti mouse IgG specific antibodies for 30 minutes on ice. Cells were washed again and analyzed on a Becton Dickinson FACSCalibur for the presence of cell surface bound antibodies.

[5] = molecular target: T1, human CS1 (HuCS1); test: FACS, binding relative to Hu34C3; cells not given
[6] = molecular target: T1, human CS1 (HuCS1); test: flow cytometry on 293s cells transfected with human CS1

Binder | GeoMean (max) [1] | % of Elotuzumab [2] | EC50 [3] | binding result [4] | also measured
elotuzumab (antibody, IgG1, V domains shown, also called HuLuc63) VH: EVQLVESGGGLVQPGGSLRLSCAASGFDFSRYWMSWVRQAPGKGLEWIGEINPDSSTINYAPSLKDKFIISRDNAKNSLYLQMNSLRAEDTAVYYCARPDGNYWYFDVWGQGTLVTVSS VL: DIQMTQSPSSLSASVGDRVTITCKASQDVGIAVAWYQQKPGKVPKLLIYWASTRHTGVPDRFSGSGSGTDFTLTISSLQPEDVATYYCQQYSSYPYTFGQGTKVEIKR | 17.5 | 100% | 35.9 nM | – | –
CS1.AD159.27A12 (antibody, V domains shown, Murine hybridoma antibody; also called Mu27A12) VH: EVKLVESEGGLVQPGSSMKLSCTASGFTFSDYYMAWVRQVPEKGLEWVAEINYDGSSTYYLDSLKSRFIISRDNAKNILYLQMSNLKSEDTATYYCARDRGFYFDYWGQGTTLTVSS VL: DVVMTQTPLSLPVSLGDQASISCRSSQSLVHNNGNTYLHWYLQKPGQSPKLLIYKVSNRFSGVPDRFSGSGSGTDFTLKISRVEAEDLGVYFCSQSTHVPPYTFGGGTKLEIK | – | – | – | binds | –
Hu34C3 S55E (antibody, V domains shown) VH: EVQLVESGGGLVQPGGSLRLSCAASGFTFSDYYMAWVRQAPGKGLEWVASINYDGESTYYVDSVKGRFTISRDNAKNSLYLQMNSLRAEDTAVYYCARDRGYYFDYWGQGTTVTVSS VL: DVVMTQTPLSLSVTPGQPASISCRSSQSLVHSNGNTYLHWYLQKPGQSPQLLIYKVSNRFSGVPDRFSGSGSGTDFTLKISRVEAEDVGVYFCSQSTHVPPFTFGGGTKVEIK | – | – | – | – | % Binding [5]: 125%
CS1.AD159.34C3 (antibody, V domains shown, Murine hybridoma antibody; also called Mu34C3) VH: EVKLVESEGGLVQPGSSMKLSCTASGFTFSDYYMAWVRQVPEKGLEWVASINYDGSSTYYLDSLKSRFIISRDNAKNILFLQMNSLKSEDTATYYCARDRGYYFDYWGQGTTLTVSS VL: DVVMTQTPLSLPVSLGDQASISCRSSQSLVHSNGNTYLHWYLQKPGQSPKLLIYKVSNRFSGVPDRFSGSGSGTDFTLKISRVEAEDLGVYFCSQSTHVPPFTFGGGTKLEIK | – | – | – | binds | –
HuCS1.27A12 (antibody, V domains shown, Humanized antibody; It has a human Fc (detected with anti-human Fc); also called Hu27A12) VH: EVQLVESGGGLVQPGGSLRLSCAASGFTFSDYYMAWVRQAPGKGLEWVAEINYDGSSTYYVDSVKGRFTISRDNAKNSLYLQMNSLRAEDTAVYYCARDRGFYFDYWGQGTTVTVSS VL: DVVMTQTPLSLSVTPGQPASISCRSSQSLVHNNGNTYLHWYLQKPGQSPQLLIYKVSNRFSGVPDRFSGSGSGTDFTLKISRVEAEDVGVYFCSQSTHVPPYTFGGGTKVEIK | 24.8 | 142% | 4.7 nM | – | –
HuCS1.31D2.2 (antibody, V domains shown, Humanized antibody; It has a human Fc (detected with anti-human Fc); also called Hu31D2) VH: EVQLVESGGGLVQPGGSLRLSCAASGFTFSDYYMAWVRQAPGKGLEWVADINYDGGSTYYLDSLKSRFTISRDNAKNSLYLQMNSLRAEDTAVYYCARDRGYYFDYWGQGTLVTVSS VL: DVVMTQSPLSLPVTPGEPASISCRSSQSLVHSNGNTYLHWYLQKPGQSPQLLIYKVSNRFSGVPDRFSGSGSGTDFTLKISRVEAEDVGVYFCSQSTHVPPFTFGGGTKVEIK | 28 | 160% | 3.1 nM | – | –
CS1.AD159.14C11 (antibody, V domains shown, Murine hybridoma antibody; also called Mu14C11) VH: EVKLVESEGGLVQPGSSMKLSCTASGFTFSDYYMAWVRQVPEKGLEWVASINYDGSSTYYLDSLKSRFIISRDNAKNILYLQMSGLKSEDTATYSCARDRGFYFDYWGQGTTLTVSS VL: DVVMTQTPLSLPVSLGDQASISCRSSQSLVHRNGNTYLHWYLQKPGQSPKLLIYKVSNRFSGVPDRFSGSGSGTDFTLKISRVEAEDLGVYFCSQSTHVPPYTFGGGTKLEIK | – | – | – | binds | –
Hu34C3 S55E/N30L (antibody, V domains shown, Double mutant of Hu34C3) VH: EVQLVESGGGLVQPGGSLRLSCAASGFTFSDYYMAWVRQAPGKGLEWVASINYDGESTYYVDSVKGRFTISRDNAKNSLYLQMNSLRAEDTAVYYCARDRGYYFDYWGQGTTVTVSS VL: DVVMTQTPLSLSVTPGQPASISCRSSQSLVHSNGLTYLHWYLQKPGQSPQLLIYKVSNRFSGVPDRFSGSGSGTDFTLKISRVEAEDVGVYFCSQSTHVPPFTFGGGTKVEIK | – | – | – | – | % Binding [5]: 134%
CS1.AD159.12D10 (antibody, V domains shown, Murine hybridoma antibody; also called Mu12D10) VH: EVKLVESEGGLVQPGSSMKLSCTASGFTFSDYFMAWVRQVPEKGLEWVASINYDGNSTYFLDSLKSRFIISRDNAKNILYLQMSSLKSEDTATYYCARDRGFYFDYWGQGTTLTVSS VL: DVVMTQTPLSLPVSLGDQASISCRFSQSLVHRNGNTYLHWYLQKPGQSPKLLIYKVSNRFSGVPDRFSGSGSGTDFTLKISRVEAEDLGVYFCSQSTHVRPYTFGGGTKLEIR | – | – | – | binds | –
Hu34C3 N30L (antibody, V domains shown) VH: EVQLVESGGGLVQPGGSLRLSCAASGFTFSDYYMAWVRQAPGKGLEWVASINYDGSSTYYVDSVKGRFTISRDNAKNSLYLQMNSLRAEDTAVYYCARDRGYYFDYWGQGTTVTVSS VL: DVVMTQTPLSLSVTPGQPASISCRSSQSLVHSNGLTYLHWYLQKPGQSPQLLIYKVSNRFSGVPDRFSGSGSGTDFTLKISRVEAEDVGVYFCSQSTHVPPFTFGGGTKVEIK | – | – | – | – | % Binding [5]: 128%
CS1.AD159.31D2 (antibody, V domains shown, Murine hybridoma antibody; also called Mu31D2) VH: EVKLVESEGGLVQPGSSMKLSCTASGFTFSDYYMAWVRQVPEKGLEWVADINYDGGSTYYLDSLKSRFIISRDNAKNILCLQMSSLKSEDTATYYCARDRGYYFDYWGQGTTLTVSS VL: DVVMTQTPLSLPVSLGDQASISCRSSQSLVHSNGNTYLHWYLQKPGQSPKLLIYKVSNRFSGVPDRFSGSGSGTDFTLKISRVEAEDLGVYFCSQSTHVPPFTFGGGTKLEIK | – | – | – | binds | –
HuCS1.34C3 (antibody, human IgG1, kappa, V domains shown, Humanized IgG1; also called Hu34C3) VH: EVQLVESGGGLVQPGGSLRLSCAASGFTFSDYYMAWVRQAPGKGLEWVASINYDGSSTYYVDSVKGRFTISRDNAKNSLYLQMNSLRAEDTAVYYCARDRGYYFDYWGQGTTVTVSS VL: DVVMTQTPLSLSVTPGQPASISCRSSQSLVHSNGNTYLHWYLQKPGQSPQLLIYKVSNRFSGVPDRFSGSGSGTDFTLKISRVEAEDVGVYFCSQSTHVPPFTFGGGTKVEIKR | 43.5 | 249% | 2.5 nM | – | concentration at which 80% of maximal binding occurred [6]: 10 µg/mL
